The source of these data is the supplement of paper PMC10567573.

B1: PSD2 (parent)
chain: LTHFSRRYCQCNPDDSTSEDGIHT
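Further: lentivirally expressed fusions sorted by FACS into six bins by GFP to DsRed ratio, PSI derived from sequencing read proportions per bin multiplied by bin number.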

The data set covers variants of B1. As to the kind of experiment: protein stability index of a GFP-peptide fusion (GPS, HEK-293T) (PSI 1-6); higher = more stable. As to conditions: c terminus: a fixed tail appended.
For the variant LTHFSRRYWQCNPDDSTSEDGIHT [C9W], the protein stability index turned out to be 3.57.

With LTHFSRRYKQCNPDDSTSEDGIHT [C9K], the protein stability index was 4.39.

As for LTHFSRRYAQCNPDDSTSEDGIHT [C9A], the protein stability index was 4.23.

Turning to LTHFSRRYSQCNPDDSTSEDGIHT [C9S], the protein stability index amounted to 4.78.

For LTHFSRRYIQCNPDDSTSEDGIHT [C9I], the protein stability index was determined as 3.96.

Turning to LTHFSRRYPQCNPDDSTSEDGIHT [C9P], the protein stability index came out at 4.64.

For LTHFSRRYNQCNPDDSTSEDGIHT [C9N], the protein stability index came to 4.09.

LTHFSRRYTQCNPDDSTSEDGIHT [C9T]: the protein stability index stood at 4.12.

Turning to LTHFSRRYLQCNPDDSTSEDGIHT [C9L], the protein stability index worked out at 3.67.

As for LTHFSRRYRQCNPDDSTSEDGIHT [C9R], the protein stability index turned out to be 4.1.

Take LTHFSRRYQQCNPDDSTSEDGIHT [C9Q]: the protein stability index came to 5.06.

Take LTHFSRRYGQCNPDDSTSEDGIHT [C9G]: the protein stability index is 4.15.

Turning to LTHFSRRYVQCNPDDSTSEDGIHT [C9V], the protein stability index came out at 4.13.

In the case of LTHFSRRYFQCNPDDSTSEDGIHT [C9F], the protein stability index was 3.83.

Regarding LTHFSRRYCYCNPDDSTSEDGIHT [Q10Y], the protein stability index was 3.01.

For the variant LTHFSRRYCMCNPDDSTSEDGIHT [Q10M], the protein stability index amounted to 2.19.

Take LTHFSRRYCFCNPDDSTSEDGIHT [Q10F]: the protein stability index came out at 2.25.

Consider LTHFSRRYCRCNPDDSTSEDGIHT [Q10R], for which the protein stability index is 2.24.

LTHFSRRYCHCNPDDSTSEDGIHT [Q10H]: the protein stability index was found to be 2.88.

For LTHFSRRYCECNPDDSTSEDGIHT [Q10E], the protein stability index stood at 3.87.

Consider LTHFSRRYCGCNPDDSTSEDGIHT [Q10G], for which the protein stability index came to 3.21.

Regarding LTHFSRRYCCCNPDDSTSEDGIHT [Q10C], the protein stability index was found to be 2.63.

As to LTHFSRRYCTCNPDDSTSEDGIHT [Q10T], the protein stability index stood at 3.35.

Turning to LTHFSRRYCNCNPDDSTSEDGIHT [Q10N], the protein stability index came out at 2.18.

Regarding LTHFSRRYCSCNPDDSTSEDGIHT [Q10S], the protein stability index amounted to 2.55.

In the case of LTHFSRRYCDCNPDDSTSEDGIHT [Q10D], the protein stability index turned out to be 3.84.

Turning to LTHFSRRYCICNPDDSTSEDGIHT [Q10I], the protein stability index was 1.97.

In the case of LTHFSRRYCWCNPDDSTSEDGIHT [Q10W], the protein stability index turned out to be 2.51.

LTHFSRRYCVCNPDDSTSEDGIHT [Q10V]: the protein stability index was determined as 2.9.

In the case of LTHFSRRYCLCNPDDSTSEDGIHT [Q10L], the protein stability index came to 2.63.

LTHFSRRYCPCNPDDSTSEDGIHT [Q10P]: the protein stability index turned out to be 3.41.

For LTHFSRRYCKCNPDDSTSEDGIHT [Q10K], the protein stability index stood at 2.71.

As to LTHFSRRYCACNPDDSTSEDGIHT [Q10A], the protein stability index was found to be 3.72.

In the case of LTHFSRRYCQCNSDDSTSEDGIHT [P13S], the protein stability index came out at 2.84.

LTHFSRRYCQCNYDDSTSEDGIHT [P13Y]: the protein stability index was found to be 2.44.

In the case of LTHFSRRYCQCNWDDSTSEDGIHT [P13W], the protein stability index is 1.94.

As to LTHFSRRYCQCNRDDSTSEDGIHT [P13R], the protein stability index is 3.19.

Turning to LTHFSRRYCQCNQDDSTSEDGIHT [P13Q], the protein stability index was found to be 3.06.

In the case of LTHFSRRYCQCNCDDSTSEDGIHT [P13C], the protein stability index was 2.73.

For LTHFSRRYCQCNMDDSTSEDGIHT [P13M], the protein stability index was 3.2.

Turning to LTHFSRRYCQCNNDDSTSEDGIHT [P13N], the protein stability index came to 3.38.

In the case of LTHFSRRYCQCNVDDSTSEDGIHT [P13V], the protein stability index worked out at 3.11.

With LTHFSRRYCQCNIDDSTSEDGIHT [P13I], the protein stability index was found to be 2.68.

Turning to LTHFSRRYCQCNKDDSTSEDGIHT [P13K], the protein stability index amounted to 3.02.

For the variant LTHFSRRYCQCNHDDSTSEDGIHT [P13H], the protein stability index came out at 2.76.

As to LTHFSRRYCQCNLDDSTSEDGIHT [P13L], the protein stability index came to 2.71.

For the variant LTHFSRRYCQCNDDDSTSEDGIHT [P13D], the protein stability index turned out to be 4.03.

As for LTHFSRRYCQCNFDDSTSEDGIHT [P13F], the protein stability index was 2.68.

Turning to LTHFSRRYCQCNADDSTSEDGIHT [P13A], the protein stability index was found to be 2.83.

In the case of LTHFSRRYCQCNGDDSTSEDGIHT [P13G], the protein stability index stood at 3.91.

Turning to LTHFSRRYCQCNTDDSTSEDGIHT [P13T], the protein stability index stood at 3.5.

For LTHFVRRYCQCNPDDSTSEDGIHT [S5V], the protein stability index worked out at 2.67.

LTHFQRRYCQCNPDDSTSEDGIHT [S5Q]: the protein stability index is 4.35.

On to LTHFWRRYCQCNPDDSTSEDGIHT [S5W], for which the protein stability index stood at 1.94.

Consider LTHFRRRYCQCNPDDSTSEDGIHT [S5R], for which the protein stability index came to 2.53.

As for LTHFIRRYCQCNPDDSTSEDGIHT [S5I], the protein stability index amounted to 2.34.

As for LTHFMRRYCQCNPDDSTSEDGIHT [S5M], the protein stability index was determined as 2.89.

For the variant LTHFDRRYCQCNPDDSTSEDGIHT [S5D], the protein stability index was determined as 4.38.

For the variant LTHFNRRYCQCNPDDSTSEDGIHT [S5N], the protein stability index is 3.69.

As to LTHFGRRYCQCNPDDSTSEDGIHT [S5G], the protein stability index turned out to be 3.78.

Take LTHFKRRYCQCNPDDSTSEDGIHT [S5K]: the protein stability index was found to be 2.57.

For the variant LTHFYRRYCQCNPDDSTSEDGIHT [S5Y], the protein stability index was 2.27.

With LTHFHRRYCQCNPDDSTSEDGIHT [S5H], the protein stability index came out at 3.36.

Consider LTHFFRRYCQCNPDDSTSEDGIHT [S5F], for which the protein stability index worked out at 2.18.

With LTHFCRRYCQCNPDDSTSEDGIHT [S5C], the protein stability index came to 2.71.

LTHFLRRYCQCNPDDSTSEDGIHT [S5L]: the protein stability index stood at 3.06.

LTHFPRRYCQCNPDDSTSEDGIHT [S5P]: the protein stability index came to 3.4.

For the variant LTHFTRRYCQCNPDDSTSEDGIHT [S5T], the protein stability index was 3.42.

With LTHFARRYCQCNPDDSTSEDGIHT [S5A], the protein stability index came to 3.43.

LTHFERRYCQCNPDDSTSEDGIHT [S5E]: the protein stability index was found to be 3.97.

For the variant LTHFSRRYCQCNPFDSTSEDGIHT [D14F], the protein stability index is 2.04.

As to LTHFSRRYCQCNPCDSTSEDGIHT [D14C], the protein stability index amounted to 2.8.

LTHFSRRYCQCNPEDSTSEDGIHT [D14E]: the protein stability index was found to be 3.02.

In the case of LTHFSRRYCQCNPADSTSEDGIHT [D14A], the protein stability index was 2.09.

Take LTHFSRRYCQCNPGDSTSEDGIHT [D14G]: the protein stability index came out at 2.35.

Consider LTHFSRCYCQCNPDDSTSEDGIHT [R7C], for which the protein stability index was determined as 3.15.

For the variant LTHFSRHYCQCNPDDSTSEDGIHT [R7H], the protein stability index is 3.8.

On to LTHFSRDYCQCNPDDSTSEDGIHT [R7D], for which the protein stability index came out at 4.69.

Turning to LTHFSRPYCQCNPDDSTSEDGIHT [R7P], the protein stability index was 4.46.

As to LTHFSRFYCQCNPDDSTSEDGIHT [R7F], the protein stability index turned out to be 3.26.

On to LTHFSRMYCQCNPDDSTSEDGIHT [R7M], for which the protein stability index came out at 3.84.

On to LTHFSRSYCQCNPDDSTSEDGIHT [R7S], for which the protein stability index was 3.51.

As for LTHFSRGYCQCNPDDSTSEDGIHT [R7G], the protein stability index was found to be 2.93.

On to LTHFSRVYCQCNPDDSTSEDGIHT [R7V], for which the protein stability index turned out to be 3.13.

On to LTHFSRNYCQCNPDDSTSEDGIHT [R7N], for which the protein stability index amounted to 3.75.

Turning to LTHFSRIYCQCNPDDSTSEDGIHT [R7I], the protein stability index worked out at 3.64.

On to LTHFSRLYCQCNPDDSTSEDGIHT [R7L], for which the protein stability index was 3.74.

Consider LTHFSREYCQCNPDDSTSEDGIHT [R7E], for which the protein stability index came out at 4.43.

LTHFSRYYCQCNPDDSTSEDGIHT [R7Y]: the protein stability index was found to be 2.92.

LTHFSRQYCQCNPDDSTSEDGIHT [R7Q]: the protein stability index turned out to be 4.57.

For the variant LTHFSRAYCQCNPDDSTSEDGIHT [R7A], the protein stability index came to 3.3.

LTHFSRWYCQCNPDDSTSEDGIHT [R7W]: the protein stability index amounted to 2.32.

Regarding LTHFSRTYCQCNPDDSTSEDGIHT [R7T], the protein stability index was 4.01.

Regarding LTHFSRKYCQCNPDDSTSEDGIHT [R7K], the protein stability index amounted to 3.53.
